Consider one substance from patent US11369662B2 (The Medical College of Wisconsin, Inc., priority 2014, dated 2022).

Usually Kd stands for the constant that tells how readily two partners part at equilibrium.

The target in one assay is T1, CXCL12WT dimerization (Homo sapiens, UniProt P48061).
T1 construct: made in house
Nature of the assay: Intrinsic tryptophan fluorescence polarization assay of CXCL12WT dimerization. The settings on record: for ΔGdimer: 298 K. Format: binding. How it is done: Fluorescence polarization assay. Fluorescence polarization (FP) assays were performed on a PTI spectrofluorometer equipped with automated polarizers, using a time base polarization method provided by the program Felix32. […] Experiments were performed in duplicate and the reported dimerization Kd values reflect the average of both experiments.
Background: Polarisation of emitted light reports the rotation of a fluorescent probe.

A further assay deals with T2, CXCR4 (Y7A, Y12A, Y21A) (Homo sapiens, UniProt P61073, Y12A/Y21A/Y7A).
T2 construct: expressed in transfected cells; host or cells: CHO-K1 stably expressing Galpha15 (transient)
T2 sequence (P61073 whole entry Y7A/Y12A/Y21A): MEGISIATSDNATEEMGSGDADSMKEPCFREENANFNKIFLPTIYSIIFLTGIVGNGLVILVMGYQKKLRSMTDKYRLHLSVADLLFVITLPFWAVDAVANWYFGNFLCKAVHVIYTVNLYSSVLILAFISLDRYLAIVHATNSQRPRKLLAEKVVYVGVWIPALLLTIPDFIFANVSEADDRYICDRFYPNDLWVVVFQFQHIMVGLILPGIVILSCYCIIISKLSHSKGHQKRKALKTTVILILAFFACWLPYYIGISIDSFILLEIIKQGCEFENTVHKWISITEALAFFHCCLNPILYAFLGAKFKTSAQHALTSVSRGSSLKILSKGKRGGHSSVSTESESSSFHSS
Briefly: Calcium flux in CHO-K1 cells, FLAG-tagged CXCR4 with Y7A, Y12A and Y21A. Format: cell-based. How it is done:
Cell culture. Chinese hamster ovary K1 (CHO-K1) cells, stably transfected with the Gα15 gene in pcDNA3.1+, were cultured in a 1:1 mixture of Dulbecco's modified Eagle medium (DMEM) with Glutamax (Gibco):F12 nutrient mixture (Gibco) supplemented with 10% (w/v) fetal bovine serum (FBS) (Gibco). Stable expression of the Gα15 transgene was maintained by further supplementing the growth medium with 700 μg ml^−1 geneticin (Gibco).
Transfections. For transient transfections with the Flag-CXCR4 WT and N-terminally mutated constructs, the CHO-K1 Gα15 stable cells were lifted using 0.25% (v/v) trypsin-EDTA (Gibco), and 2×10^6 cells were re-plated onto 10 cm culture dishes. […] The cells were transfected 24 hours later using the Mirus TransIT-CHO Transfection Kit according to the manufacturers protocol, with the following exceptions: the amount of CHO transfection reagent was scaled up to 4 μl μg^−1 of DNA in the transfection mixtures, and the amount of CHO mojo reagent was scaled up to 1 μl μg^−1 of DNA in the mixtures. […]
Calcium flux. […] Fluorescence was measured at 310 K using a FlexStation2 Microplate Reader with excitation and emission wavelengths at 485 nm and 515 nm, respectively. […] CXCR4 variants with EC50 or maximum calcium response values more than three standard deviations from the mean CXCR4WT quantities were deemed significant.

T1 sequence (P48061 22-89): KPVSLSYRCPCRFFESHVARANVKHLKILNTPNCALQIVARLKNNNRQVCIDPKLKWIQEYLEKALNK

Regarding “CXCL12WT: wild type CXCL12 (stromal cell-derived factor-1/SDF-1), SEQ ID NO:1”, the figures for the ΔGdimer with CXCL12WT dimerization (pathway 1: dimerization after sTyr21 sulfopeptide binding) and with CXCL12WT dimerization (pathway 2: dimerization before sulfopeptide binding) were −3.5 kcal mol^− and −2.5 kcal mol^−, respectively. For the same substance, the Kd with CXCL12WT dimerization (read-out: Kd for CXCL12WT dimerization, in the presence of 50 mM sulfotyrosine) is 9.3 ± 1.8 mM. In the assay with CXCR4 (Y7A, Y12A, Y21A), the “efficacy (maximum calcium response)” value is on record as ~20 % of the wildtype receptor. In addition, the “potency (calcium response)” value with CXCR4 (Y7A, Y12A, Y21A) (relative to CXCR4(Y21A)) is “did not further diminish the potency relative to CXCR4(Y21A)”.
